Assay results published in PMC8752090.

Biological target: adaptor protein complex 2 (AP-2), P17426;Q9DBG3;P84091;P62743
Test: GST pull-down from brain lysate, immunoblot band quantification
Settings: chain shown with the change; n = 3 independent experiments; parent: est. 1.0; read off a plot

ratio to parent: 0.19
B1: GST-VGLUT1 C-terminus-WT (cytoplasmic C-terminal region of VGLUT1, a.a. 496-560), Q3TXX4 F510A; V511A (protein)
chain: PWAEPEEMSEEKCGAAGHDQLAGSDESEMEDEAEPPGAPPAPPPSYGATHSTVQPPRPPPPVRDY
